Laboratory results from patent publication US12723105.

Assays:
CD47 [1] = molecular target: CD47 (UniProt Q08722); assay: flow cytometry, CD47-overexpressing cells
CD47 [2] = molecular target: CD47 (UniProt Q08722); assay: competitive ELISA vs SIRPα

B6H12
EC50 (CD47 [1]): 5.59 nM
IC50 (CD47 [2]): 0.499 nM
